Measurements published in patent US20220204626A1 (REMEGEN, published 2022).
Each block holds one binder with its values, some of them ahead of it.

Columns and labels:
[1] = target: T1, TGF-β1 (UniProt P01137 279-390, limits assumed); test: ELISA, TGF-β1 coated at 2 µg/ml, detection with anti-His-HRP
Description: (§1) (11) Reading: The absorbance values were read at 450/655 nm respectively using the MD microplate reader. The concentration of the sample to be tested was used as the abscissa and the absorbance value as the ordinate to plot making a 4-PL curve, and the software automatically gave the EC50 value. (see table 7).

[2] = target: T2, CTLA-4 Protein (UniProt P16410 36-161, limits assumed); test: ELISA, CTLA-4 Protein coated at 20 µg/ml, biotinylated sample, detection with streptavidin-HRP
T2 sequence (looked up): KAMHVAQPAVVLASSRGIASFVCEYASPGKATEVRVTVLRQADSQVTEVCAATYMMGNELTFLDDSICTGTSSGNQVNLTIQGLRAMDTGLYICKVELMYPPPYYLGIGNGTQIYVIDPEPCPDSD
Procedure: Hib-PDC sample well and CD80-His well: Streptavidin-HRP was diluted at 1:2000, and added at 100 μl/well. Then the plate was incubated at 37° C. for 1 h±10 min;
as §1

[3] = target: VEGF (UniProt P15692-4 27-191, limits assumed); test: ELISA, VEGF coated at 1 µg/ml, detection with anti-His-HRP
Description: as §1

[4] = target: T1, TGF-β1; test: ELISA on coated TGF-β1, ratio of EC50 values against TGF-β-R-His
Description: as §1

[5] = target: T1, TGF-β1; test: ELISA, TGF-β1 coated at 2 µg/ml, detection with goat anti-human Fc-HRP
Description: as §1

T1 sequence (P01137 279-390 limits assumed): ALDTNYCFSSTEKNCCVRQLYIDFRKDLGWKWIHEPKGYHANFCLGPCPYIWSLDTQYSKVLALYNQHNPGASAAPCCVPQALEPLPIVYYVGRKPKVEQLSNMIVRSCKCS
Sequence of VEGF (P15692 other isoform, or with tags, fused parts or gaps limits assumed): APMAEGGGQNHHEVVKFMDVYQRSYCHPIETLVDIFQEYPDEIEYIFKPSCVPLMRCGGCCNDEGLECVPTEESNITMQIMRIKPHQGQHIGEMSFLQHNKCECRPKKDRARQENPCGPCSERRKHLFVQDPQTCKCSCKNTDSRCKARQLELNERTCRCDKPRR

EC50 [1]: 11.6 nM
B1: TGF-β-R-His (receptor)
chain: TIPPHVQKSVNNDMIVTDNNGAVKFPQLCKFCDVRFSTCDNQKSCMSNCSITSICEKPQEVCVAVWRKNDENITLETVCHDPKLPYHDFILEDAASPKCIMKEKKKPGETFFMCSCSSDECNDNIIFSEEYNTSNPD
notes: The His tag is set after the fragment only by default; also called TGF-β receptor monomer; His-tagged TGF-βRII extracellular region fragment; not shown: His tag

fold better binding activity than TGF-β receptor monomer [4]: ~70 times
EC50 [5]: 0.164 nM
B4: Hib-PLT (bispecific antibody)
heavy: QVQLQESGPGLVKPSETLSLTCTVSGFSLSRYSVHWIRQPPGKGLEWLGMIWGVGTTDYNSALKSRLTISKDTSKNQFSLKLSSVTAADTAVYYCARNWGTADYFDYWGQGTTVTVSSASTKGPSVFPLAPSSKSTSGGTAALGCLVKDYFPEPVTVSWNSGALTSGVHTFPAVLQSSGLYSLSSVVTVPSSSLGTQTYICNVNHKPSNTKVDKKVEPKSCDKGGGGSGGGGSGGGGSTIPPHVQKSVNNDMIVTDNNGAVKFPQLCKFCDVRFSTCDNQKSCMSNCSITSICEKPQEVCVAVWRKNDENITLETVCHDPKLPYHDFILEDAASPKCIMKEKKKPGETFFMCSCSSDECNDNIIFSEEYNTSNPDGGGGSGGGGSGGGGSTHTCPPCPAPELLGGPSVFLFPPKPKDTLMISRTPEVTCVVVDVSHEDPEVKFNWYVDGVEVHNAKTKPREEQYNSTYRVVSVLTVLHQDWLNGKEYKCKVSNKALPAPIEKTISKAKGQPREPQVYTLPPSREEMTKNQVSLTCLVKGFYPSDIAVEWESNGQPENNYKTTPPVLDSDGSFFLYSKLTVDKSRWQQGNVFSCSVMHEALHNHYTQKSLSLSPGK
light: DIVLTQSPASLAVSPGQRATITCRASKSVHTSGYSYMHWYQQKPGQPPKLLIYLASNLESGVPARFSGSGSGTDFTLTINPVEANDTANYYCQHSGELPYTFGGGTKVEIKRTVAAPSVFIFPPSDEQLKSGTASVVCLLNNFYPREAKVQWKVDNALQSGNSQESVTEQDSKDSTYSLSSTLTLSKADYEKHKVYACEVTHQGLSSPVTKSFNRGEC
notes: also called fusion protein Hib-PLT; Hibody bispecific fusion protein Hib-PLT

Continued, binder first:

B2: CD80-His (ligand)
chain: VIHVTKEVKEVATLSCGHNVSVEELAQTRIYWQKEKKMVLTMMSGDMNIWPEYKNRTIFDITNNLSIVILALRPSDEGTYECVVLKYEKDAFKREHLAEVTLSVKADFPTPSISDFEIPTSNIRRIICSTSGGFPEPHLSWLENGEELNAINTTVSQDPETELYAVSSKLDFNMTTNHSFMCLIKYGHLRVNQTFNWN
modifications: biotinylated sample in the assay (sites not given)
notes: The His tag is set after the fragment only by default; also called CD80 monomer; His-tagged CD80 fragment; not shown: His tag
EC50 [2]: 50.7 nM

B3: VEGF-R-His (receptor)
chain: GRPFVEMYSEIPEIIHMTEGRELVIPCRVTSPNITVTLKKFPLDTLIPDGKRIIWDSRKGFIISNATYKEIGLLTCEATVNGHLYKTNYLTHRQTNTIIDVVLSPSHGIELSVGEKLVLNCTARTELNVGIDFNWEYPSSKHQHKKLVNRDLKTQSGSEMKKFLSTLTIDGVTRSDQGLYTCAASSGLMTKKNSTFVRVHEP
notes: The His tag is set after the fragment only by default; also called VEGF receptor monomer; not shown: His tag
EC50 [3]: 2150 nM
